In patent US20130330346A1 (Novartis, published 2013):
Positions count from the first letter of the chain named. Where two headings read alike, the source gives them in different places. Blank lines part the entries; values can stand above or below the binder they belong to. Ends that are not written are not given here.

Tests used:
Cynomolgus CXCR2 [1] = biological target: T1, Cynomolgus CXCR2 (cynomolgus, UniProt Q28519 3-353 (rhesus entry)); experiment: FACS hGro-α competition
T1 construct: On transfected HEK293T or RBL-2H3 cells; native on cynomolgus neutrophils in the WBSC assay; also called cCXCR2; cynoCXCR2
T1 chain: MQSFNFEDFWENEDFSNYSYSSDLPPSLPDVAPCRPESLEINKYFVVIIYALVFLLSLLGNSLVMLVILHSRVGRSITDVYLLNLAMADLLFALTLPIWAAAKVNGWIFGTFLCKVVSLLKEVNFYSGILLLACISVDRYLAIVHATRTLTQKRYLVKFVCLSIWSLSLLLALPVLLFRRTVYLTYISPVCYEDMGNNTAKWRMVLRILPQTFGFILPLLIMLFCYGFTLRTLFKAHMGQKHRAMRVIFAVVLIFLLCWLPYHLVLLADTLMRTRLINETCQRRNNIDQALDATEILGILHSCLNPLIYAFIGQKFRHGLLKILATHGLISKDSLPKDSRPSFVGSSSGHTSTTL

Human CXCR2 [2] = biological target: T2, Human CXCR2 (human, UniProt P25025 1-360); experiment: FACS hGro-α competition
T2 construct: Some cell lines carry an N-terminal 3xHA tag; also called hCXCR2; huCXCR2
T2 sequence: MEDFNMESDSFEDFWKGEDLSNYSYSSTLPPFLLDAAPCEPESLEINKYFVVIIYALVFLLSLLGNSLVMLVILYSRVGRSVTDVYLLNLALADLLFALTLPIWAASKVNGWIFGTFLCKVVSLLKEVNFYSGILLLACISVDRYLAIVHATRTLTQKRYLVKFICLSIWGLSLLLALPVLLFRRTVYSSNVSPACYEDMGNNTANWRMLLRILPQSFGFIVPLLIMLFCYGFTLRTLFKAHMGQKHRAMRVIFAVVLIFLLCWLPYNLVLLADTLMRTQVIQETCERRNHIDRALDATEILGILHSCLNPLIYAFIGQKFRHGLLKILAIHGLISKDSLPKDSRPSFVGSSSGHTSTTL

Cynomolgus CXCR2 [3] = biological target: T1, Cynomolgus CXCR2; experiment: cell-based or functional assay
Human CXCR2 [4] = biological target: T2, Human CXCR2; experiment: cell-based or functional assay
Human CXCR2 [5] = biological target: T2, Human CXCR2; experiment: immunoluminescence, HEK-293T with wild type receptor, 1.0 ug/ml, anti-myc detection
Cynomolgus CXCR2 [6] = biological target: T1, Cynomolgus CXCR2; experiment: cell-based or functional assay
Human CXCR2 [7] = biological target: T2, Human CXCR2; experiment: cell-based or functional assay; remark: listed apart in the source
Cynomolgus CXCR2 [8] = biological target: T1, Cynomolgus CXCR2; experiment: FACS hGro-α competition
Human CXCR2 [9] = biological target: T2, Human CXCR2; experiment: FACS hGro-α competition; remark: listed apart in the source
Human CXCR2 [10] = biological target: T2, Human CXCR2; experiment: FACS, periplasmic extract vs FMAT Blue Gro-α
Summary of the method: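 Cells (2×10⁵) preincubated 30 min at 4 °C with ½-diluted periplasmic extracts in PBS/10% FBS. An equal volume of 6 nM FMAT Blue-labelled human Gro-α was then added for another 30 min at 4 °C in the dark. After washing, dead cells were excluded with propidium iodide and binding read by flow cytometry.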

Cynomolgus CXCR2 [11] = biological target: T1, Cynomolgus CXCR2; experiment: FACS hGro-α competition
Human CXCR2 [12] = biological target: T2, Human CXCR2; experiment: FACS hGro-α competition; remark: listed apart in the source
Cynomolgus CXCR2 [13] = biological target: T1, Cynomolgus CXCR2; experiment: cell-based or functional assay
Human CXCR2 [14] = biological target: T2, Human CXCR2; experiment: cell-based or functional assay; remark: listed apart in the source
Human 1to19 peptide [15] = biological target: T3, Human 1to19 peptide (human); experiment: ELISA, periplasmic extract on biotinylated peptide
T3 construct: First 19 N-terminal amino acids of human CXCR2, captured on neutravidin; also called human CXCR2 1 to19 peptide; 1-19 Nter peptide
T3 peptide: MEDFNMESDSFEDFWKGED-biotin
Method: In another setup, periplasmic extracts were analyzed for binding to human 1 to 19 peptide by ELISA. MaxiSorb plates (Nunc, 430341) were coated for two hours with neutravidin followed by one hour blocking (PBS, 1% casein). Then 100 nM biotinylated human 1 to 19 peptide was added to these plates for one hour (PBS, 0.1% casein, 0.05% tween20) followed by one hour incubation with 10-fold dilutions of periplasmic extracts. Unbound periplasmic extracts were washed away (PBS supplemented with 0.05% tween20) and bound Nanobodies were detected using mouse anti-myc (Roche, 11667149001) followed by rabbit anti-mouse-HRP conjugate (Dakocytomation, P0260). Table 8 summarizes the ratios of the binding signals of anti-CXCR2Nanobodies over an irrelevant control Nanobody.

Cynomolgus CXCR2 [16] = biological target: T1, Cynomolgus CXCR2; experiment: FACS competition vs 3 nM FMAT-Blue Gro-α
Method: (§1) Purified monovalent anti-CXCR2Nanobodies were titrated against 3 nM FMAT-Blue-labeled Gro-α in the FACS ligand competition assay on human and cynomolgus CXCR2 (Table 10). On human CXCR2, blocking potencies range between double digit nM and sub-nM whereas on cynomolgus CXCR2, they range between single and double digit nM.

Human CXCR2 [17] = biological target: T2, Human CXCR2; experiment: FACS competition vs 3 nM FMAT-Blue Gro-α
Method: as §1

Human CXCR2 [18] = biological target: T2, Human CXCR2; experiment: cell-based or functional assay; remark: listed apart in the source
Cynomolgus CXCR2 [19] = biological target: T1, Cynomolgus CXCR2; experiment: cell-based or functional assay
Human CXCR2 [20] = biological target: T2, Human CXCR2; experiment: cell-based or functional assay; remark: listed apart in the source
Human 1to19 peptide [21] = biological target: T3, Human 1to19 peptide; experiment: peptide ELISA of Table 8 (ratio 0.6)
Cynomolgus CXCR2 [22] = biological target: T1, Cynomolgus CXCR2; experiment: cell-based or functional assay
Human CXCR2 [23] = biological target: T2, Human CXCR2; experiment: cell-based or functional assay; remark: listed apart in the source
Human CXCR2 [24] = biological target: T2, Human CXCR2; experiment: immunoluminescence, HEK-293T with wild type receptor, 2.0 ug/ml, anti-myc detection

B2: CXCR20061 (VHH)
VHH: EVQLLESGGGLVQPGGSLRLSCAASGSIVRINTMGWYRQAPGKQRELVADITSGGNINYADSVKGRFTISRDNSKNTVYLQMNSLRPEDTAVYYCNAEIVVLVGVWTQRARTGNYWGQGTLVTVSS
notes: also called RD-HBC793; RDHBC 793
- FLIPR hGro-α IC50 (Cynomolgus CXCR2 [6]): 350 nM
- FLIPR hGro-α IC50 (Human CXCR2 [7]): 66 nM
- IC50 (Cynomolgus CXCR2 [8]): 62 nM
- IC50 (Human CXCR2 [9]): 15 nM
- Signal:Background (Human CXCR2 [5]): 6.9 ratio

B3: 163E3 (VHH)
VHH: EVQLVESGGGLVQPGGSLRLSCVASGRIFSSNAMGWFRQAPGKEREFVAAITWRSGGSAYYADSAKGRFTISRDNAKNTVYLQMNSLKPEDTAVYYCAAGGSSWLSFPPDYWGQGTQVTVSS
notes: Tested as periplasmic extract (pAX50) and as purified His6-tagged protein (pAX100); also called 163E03; not shown: C-terminal c-myc tag and His6 tag coded by the vector
- FACS Gro-α competition (% inhibition) (Human CXCR2 [10]): 80.1%
- IC50 (Cynomolgus CXCR2 [11]): 22 nM
- IC50 (Human CXCR2 [12]): 10 nM
- Cynomologus WBSC IC50 (rhGROα) (Cynomolgus CXCR2 [13]): > 100 nM
- Human Chemotaxis IC50 (GROα) (Human CXCR2 [14]): 9.3 nM
- Human WBSC IC50 (rhGROα) (Human CXCR2 [14]): 9.4 nM
- ratio of binding signal relative to blank control (Human 1to19 peptide [15]): 0.6 ratio
- % inhibition of max (Cynomolgus CXCR2 [16]): 83.5%
- IC50 (Cynomolgus CXCR2 [16]): 14.8 nM
- % inhibition of max (Human CXCR2 [17]): 92.4%
- IC50 (Human CXCR2 [17]): 8.96 nM
- IC50 (M) at 5 nM GROα (inhibition of GRO-α, FIG. 2) (Human CXCR2 [18]): 3.03e-08 M
- IC50 (M) at 15 nM GROα (inhibition of GRO-α, FIG. 2) (Human CXCR2 [18]): 4.04e-08 M
- IC50 (M) at 45 nM GROα (inhibition of GRO-α, FIG. 2) (Human CXCR2 [18]): 7.54e-08 M
- IC50 (M) at 150 nM GROα (inhibition of GRO-α, FIG. 2) (Human CXCR2 [18]): 1.87e-07 M
- FLIPR hGro-α IC50 (Cynomolgus CXCR2 [19]): 150 nM
- FLIPR hGro-α IC50 (Human CXCR2 [20]): 35 nM
- binding result (Human 1to19 peptide [21]): no binding
- FLIPR % inhibition max (Cynomolgus CXCR2 [22]): 100%
- FLIPR IC50 (GRO-α induced calcium release) (Cynomolgus CXCR2 [22]): 158 nM
- FLIPR % inhibition max (Human CXCR2 [23]): 100%
- FLIPR IC50 (GRO-α induced calcium release) (Human CXCR2 [23]): 44.3 nM
- [35S]GTPγS % inhibition max (GRO-α) (Human CXCR2 [23]): 100%
- [35S]GTPγS IC50 (GRO-α) (Human CXCR2 [23]): 64.7 nM

Further lines, results first:

- IC50 (Cynomolgus CXCR2 [1]): 2.8 nM
- IC50 (Human CXCR2 [2]): 0.8 nM
- FLIPR hGro-α IC50 (Cynomolgus CXCR2 [3]): 450 nM
- FLIPR hGro-α IC50 (Human CXCR2 [4]): 10 nM
- Signal:Background (Human CXCR2 [5]): 13 ratio
B1: CXCR20079 (VHH)
VHH: EVQLLESGGGLVQPGGSLRLSCAASGSTFDFKVMGWYRQAPGKQREGVAAIRLSGNRHYAESVKGRFTISRANSKNTVYLQMNSLRPEDTAVYYCKVNIRGQDYWGQGTLVTVSS
notes: also called RD-HBC792; RDHBC 792

- IC50 (Cynomolgus CXCR2 [11]): 25 nM
- IC50 (Human CXCR2 [12]): 16 nM
- Signal:Background (Human CXCR2 [24]): 20 ratio
- FLIPR hGro-α IC50 (Cynomolgus CXCR2 [19]): 100 nM
- FLIPR hGro-α IC50 (Human CXCR2 [20]): 31 nM
B4: CXCR20076 (VHH)
VHH: B3 VHH with V5L, V23A, A65V, A76S, K88R, Q117L
notes: also called RD-HBC794; MAb 794
